Results taken from patent US12246067B2, “Neoantigens and uses thereof” (priority 2018, dated 2025).

What was measured:
[1] = target: T1, HLA-A02:01 (Homo sapiens, UniProt P04439, D140Y/D185E/D98H/E176V/E277Q/G131W/G231S/I119V/I121R/I166T/I218V/L300P/L318F/N151K/N90K/P208A/P217A/Q86G/Q94H/R138H/R169H/T345S); assay: Affinity of neoepitopes for the indicated HLA allele; type: binding; details: HLA allele A02.01; mutant KRAS peptides (Example 9)
Description: (§1) Multiple peptides containing the neoepitopes in the table below were expressed or loaded onto antigen presenting cells (APCs). Mass spectrometry was then performed and the affinity of the neoepitopes for the indicated HLA alleles and stability of the neoepitopes with the HLA alleles was determined.

[2] = target: T1, HLA-A02:01; assay: Stability of neoepitopes with the HLA allele; type: binding; details: HLA allele A02.01; mutant KRAS peptides (Example 9)
Description: as §1

[3] = test system: ovarian carcinoma patients; details: poly-ICLC in combination with a NYESO-1 peptide vaccine (in addition to Montanide); phase 1 study; cited from earlier work
[4] = test system: humans; details: cited from earlier work

Row | Substance | Measured Affinity [1] | Measured stability [2] | Patients showing induction of CD4+ and CD8+ T cell, as well as antibody responses to the peptide [3] | CD4+ and CD8+ responses in humans [4]
1 | LVVVGAVGV | 682.5 nM | 0.6 h | – | –
2 | LVVVGADGV | 977.4 nM | 0.0 h | – | –
3 | LVVVGACGV | 667.1 nM | 0.6 h | – | –
4 | poly-ICLC | – | – | > 90% | can induce durable CD4^+ and CD8^+ responses
